For two molecules, fold of binding signal (A405 on rPvAMA1 over A405 on BSA) results are on record in PMC5600724.

The target of this assay is recombinant Plasmodium vivax apical membrane antigen 1 ectodomain (rPvAMA1) (Plasmodium vivax). Briefly: ELISA; phage ELISA: wells coated with rPvAMA1 (100 ug/ml in 0.1 M NaHCO3, pH 8.6), blocked with BSA; ~10^9 phage in TBST, 2 h at room temperature; HRP anti-M13 antibody, ABTS, A405; fold = absorbance on target / absorbance on BSA-blocked well. Background: ELISA stands for enzyme-linked immunosorbent assay.

For WHWSWWNPNQLT [PdV2 phage-displayed dodecapeptide], the fold of binding signal (A405 on rPvAMA1 over A405 on BSA) turned out to be 3.5 fold.

With TSVSYINNRHNL [PdV3 phage-displayed dodecapeptide], the fold of binding signal (A405 on rPvAMA1 over A405 on BSA) was 3.1 fold.
